Assay results taken from patent US20180214548A1 (SHANGHAI YUNYI HEALTHCARE AND TECHNOLOGY, published 2018).

T1: CTLA4 (human, UniProt P16410 37-162, limits assumed)
T1 sequence (looked up): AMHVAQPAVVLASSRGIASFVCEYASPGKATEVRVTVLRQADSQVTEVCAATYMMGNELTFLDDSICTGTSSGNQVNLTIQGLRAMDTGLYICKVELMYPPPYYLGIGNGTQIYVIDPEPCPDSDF

T2: ICOS (human, UniProt Q9Y6W8 21-140, limits assumed)
T2 sequence (looked up): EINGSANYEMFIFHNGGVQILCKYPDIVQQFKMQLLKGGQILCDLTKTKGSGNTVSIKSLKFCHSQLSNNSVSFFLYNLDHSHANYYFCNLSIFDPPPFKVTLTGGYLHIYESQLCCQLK

T3: B7-1 (human, UniProt P33681 35-242)
T3 sequence (looked up): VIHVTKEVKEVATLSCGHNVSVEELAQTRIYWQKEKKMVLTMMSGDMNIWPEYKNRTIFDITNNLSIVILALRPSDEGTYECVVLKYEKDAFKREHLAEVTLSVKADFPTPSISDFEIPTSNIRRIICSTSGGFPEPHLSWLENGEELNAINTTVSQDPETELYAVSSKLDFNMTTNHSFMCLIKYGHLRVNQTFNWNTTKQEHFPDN

T4: ICOS (human, UniProt Q9Y6W8 21-140, limits assumed)
T4 sequence (looked up): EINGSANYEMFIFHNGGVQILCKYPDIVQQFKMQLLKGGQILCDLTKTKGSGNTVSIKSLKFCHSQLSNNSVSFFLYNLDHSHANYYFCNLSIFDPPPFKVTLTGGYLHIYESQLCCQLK

T5: B7.1 (human, UniProt P33681 35-242)
T5 sequence (looked up): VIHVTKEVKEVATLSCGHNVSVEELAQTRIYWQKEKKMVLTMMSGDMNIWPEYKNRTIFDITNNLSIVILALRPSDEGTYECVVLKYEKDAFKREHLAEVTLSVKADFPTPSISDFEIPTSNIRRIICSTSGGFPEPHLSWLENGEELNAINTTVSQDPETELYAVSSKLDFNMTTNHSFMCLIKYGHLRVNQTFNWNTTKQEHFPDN

T6: CTLA4 (human, UniProt P16410 37-162, limits assumed)
T6 sequence (looked up): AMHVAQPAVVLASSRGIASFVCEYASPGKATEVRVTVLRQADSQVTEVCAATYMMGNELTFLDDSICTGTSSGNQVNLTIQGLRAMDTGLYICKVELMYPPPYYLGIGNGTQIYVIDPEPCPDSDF


Columns and labels:
[1] = biological target: T7, cyno PD-1^ECD-hFc protein (cyno monkey, UniProt B0LAJ3 25-167); assay: ELISA, coated cyno PD-1ECD-hFc; antibody 0.1 nM
T7 construct: Prepared by the method for Immunogen A; also called Cyno Monkey PD-1^ECD-hFc; cyno monkey PD-1-hFc; not shown: human IgG Fc fragment (hFc) and its junction to the ECD
T7 sequence (B0LAJ3 entry or part of it limits assumed): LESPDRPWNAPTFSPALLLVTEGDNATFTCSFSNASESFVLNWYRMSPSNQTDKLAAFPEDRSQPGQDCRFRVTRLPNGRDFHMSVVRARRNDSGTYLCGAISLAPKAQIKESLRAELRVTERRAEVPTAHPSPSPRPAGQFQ
Description: (§1) 100 uL of the diluted recombinant proteins were added to each well of 96-well plate. The plates were sealed with plastic film and incubated at 4° C. overnight. The plates were washed twice with wash buffer (PBS+0.01% (v/v) Tween20), and incubated with blocking buffer (PBS+0.01% (v/v) Tween20+1% (w/w) BSA) at room temperature for 2 hours. The blocking buffer was aspirated away, and 100 uL of purified anti-PD-1 antibodies were added to each well and incubated for 2 hours at 37° C. The plates were washed three times with wash buffer (PBS+0.01% (v/v) Tween20). HRP-conjugated secondary antibody (Sigma) was added to each well and incubated for 2 hours at 37° C. After the plates were washed three times with wash buffer, 100 uL TMB substrate was added to each well and incubated for 30 minutes at room temperature. 100 uL stop solution (0.1N HCl) was added to each well to stop the reaction. The absorbance at 450 nm was measured with an ELISA plate reader (384plus SpectraMax, Molecular Devices).

[2] = biological target: T7, cyno PD-1^ECD-hFc protein; assay: ELISA, coated cyno PD-1ECD-hFc; antibody 10 nM
Description: as §1

CTLA4 [3] = biological target: T1, CTLA4; assay: ELISA on coated protein (Table 9)
Description: as §1

CD28 [4] = biological target: T8, CD28 (human, UniProt P10747 19-152); assay: ELISA on coated protein (Table 9)
Description: as §1
T8 sequence (P10747 19-152 limits assumed): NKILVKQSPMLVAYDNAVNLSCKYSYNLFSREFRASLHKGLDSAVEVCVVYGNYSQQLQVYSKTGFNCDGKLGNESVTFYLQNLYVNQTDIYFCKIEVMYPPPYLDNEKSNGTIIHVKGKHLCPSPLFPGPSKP

ICOS [5] = biological target: T2, ICOS; assay: ELISA on coated protein (Table 9)
Description: as §1

B7-1 = biological target: T3, B7-1; assay: ELISA on coated protein (Table 9)
Description: as §1

[6] = biological target: T7, cyno PD-1^ECD-hFc protein; assay: ELISA, coated cyno PD-1ECD-hFc; antibody 100 nM
Description: as §1

[7] = biological target: T7, cyno PD-1^ECD-hFc protein; assay: ELISA, coated cyno PD-1ECD-hFc; antibody 0.01 nM
Description: as §1

[8] = biological target: T7, cyno PD-1^ECD-hFc protein; assay: ELISA, coated cyno PD-1ECD-hFc; antibody 1 nM
Description: as §1

CTLA4 [9] = biological target: T1, CTLA4; assay: ELISA, coated protein 1 ug/mL; antibody concentration not stated
Description: as §1

CD28 [10] = biological target: T8, CD28; assay: as above
Description: as §1

ICOS [11] = biological target: T2, ICOS; assay: as above
Description: as §1

[12] = biological target: T9, cyno monkey PD-1^ECD-hFc protein (cyno monkey, UniProt B0LAJ3 25-167); assay: ELISA, coated cyno PD-1ECD-hFc
T9 construct: also called cyno PD-1^ECD-hFc; not shown: human IgG Fc fragment (hFc) and its junction to the ECD
T9 sequence (B0LAJ3 entry or part of it limits assumed): as the sequence (B0LAJ3 entry or part of it limits assumed) above

CD28 [13] = biological target: CD28 (human, UniProt P10747 19-152); assay: ELISA, coated protein, antibody concentration not given
Target sequence in this assay (P10747 19-152 limits assumed): as the sequence (P10747 19-152 limits assumed) above

ICOS [14] = biological target: T4, ICOS; assay: as above
B7.1 = biological target: T5, B7.1; assay: as above
CTLA4 [15] = biological target: T6, CTLA4; assay: as above
[16] = biological target: T10, full length human PD-1 on cells (human, UniProt Q15116 25-288); assay: flow cytometry, CHO-K1-hPD-1 cells; antibody 31.6 nM
T10 construct: Also used here for PD-1 on human T cells/PBMC; also called CHO-K1-hPD-1; hPD-1
T10 sequence (Q15116 25-288 limits assumed): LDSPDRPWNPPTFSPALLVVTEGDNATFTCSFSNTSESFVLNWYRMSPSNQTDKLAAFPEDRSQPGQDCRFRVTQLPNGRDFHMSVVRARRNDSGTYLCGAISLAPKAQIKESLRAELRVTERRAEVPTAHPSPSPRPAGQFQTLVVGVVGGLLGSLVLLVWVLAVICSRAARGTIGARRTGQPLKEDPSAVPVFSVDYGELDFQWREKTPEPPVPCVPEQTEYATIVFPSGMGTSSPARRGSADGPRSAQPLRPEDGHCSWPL
Excerpt: (§2) CHO-K1 cells were stably transfected with pIRES plasmid containing the nucleic acid sequence encoding full length human PD-1 (see Example 2, step 2) to generate CHO-K1 cells stably expressing human PD-1 (herein referred to as CHO-K1-hPD-1 cells). Other CHO-K1 were stably transfected with pIRES plasmid containing the nucleic acid sequence encoding full length cyno PD-1 to generate CHO-K1 cells stably expressing cyno PD-1 (herein referred to as CHO-K1-cPD-1 cells). CHO-K1-hPD-1 and CHO-K1-cPD-1 cells were cultured and expanded in T-75 culture flasks to 90% confluence. The culture media was aspirated, and the cells were washed twice with HBSS (Hanks Balanced Salt Solution, Invitrogen). The cells were treated with enzyme-free cell dissociation solution (Versene solution, Invitrogen) and collected. The cells were then washed twice with HBSS, cell counts were determined, and cells were resuspended with HBSS at 2×10⁶ cells/mL. Goat serum was added to the cell suspension to a final concentration of 1%, and the cells were blocked for 30 minutes on ice and then washed twice with HBSS. The cells were collected after centrifugation and resuspended in FACS buffer (HBSS+1% BSA, v/v) at 2×10⁶ cells/mL. 100 uL of the cell suspension were then added to each well of 96-well plate. 100 uL of purified anti-PD-1 antibodies from Example 2 were added to each well of the 96-well plate and incubated for 2 hours on ice. […] The samples were washed three times with FACS buffer, and 100 uL fixation buffer (4% paraformaldehyde v/v) were added to each well and incubated for 10 minutes. The cells were then washed twice with FACS buffer and resuspended in 100 uL FACS buffer. The mean fluorescence intensity (MFI) was determined using FACS Calibur (BD), and the results are shown in FIGS. 7-8 and in Tables 10-11.

[17] = biological target: T10, full length human PD-1 on cells; assay: flow cytometry, CHO-K1-hPD-1 cells; antibody 3.16 nM
Excerpt: as §2

[18] = biological target: T10, full length human PD-1 on cells; assay: flow cytometry, CHO-K1-hPD-1 cells; antibody 0.316 nM
Excerpt: as §2

[19] = biological target: T11, human PD-1^ECD-hFc protein (Immunogen A) (human, UniProt Q15116 25-167); assay: ELISA, coated human PD-1ECD-hFc; antibody 0.0001 nM
T11 construct: Biotinylated for the Octet assay; also called PD-1-hFc; hPD-1^ECD-hFc; not shown: human IgG Fc fragment (hFc)
T11 sequence (Q15116 25-167): as the sequence (B0LAJ3 entry or part of it limits assumed) above, with E2D, A10P, L19V, A35T, R75Q counted along it
Description: as §1

[20] = biological target: T11, human PD-1^ECD-hFc protein (Immunogen A); assay: ELISA, coated human PD-1ECD-hFc; antibody 100 nM
Description: as §1

[21] = biological target: T10, full length human PD-1 on cells; assay: flow cytometry, CHO-K1-hPD-1 cells; antibody 10 nM
Excerpt: as §2

[22] = biological target: T10, full length human PD-1 on cells; assay: flow cytometry, CHO-K1-hPD-1 cells; antibody 1 nM
Excerpt: as §2

[23] = biological target: T10, full length human PD-1 on cells; assay: flow cytometry, CHO-K1-hPD-1 cells; antibody 100 nM
Excerpt: as §2

[24] = biological target: T11, human PD-1^ECD-hFc protein (Immunogen A); assay: ELISA, coated human PD-1ECD-hFc; antibody 0.00001 nM
Description: as §1

[25] = biological target: T11, human PD-1^ECD-hFc protein (Immunogen A); assay: ELISA, coated human PD-1ECD-hFc; antibody 0.001 nM
Description: as §1

[26] = biological target: T11, human PD-1^ECD-hFc protein (Immunogen A); assay: ELISA, coated human PD-1ECD-hFc; antibody 0.01 nM
Description: as §1

[27] = biological target: T11, human PD-1^ECD-hFc protein (Immunogen A); assay: ELISA, coated human PD-1ECD-hFc; antibody 1 nM
Description: as §1

[28] = biological target: T11, human PD-1^ECD-hFc protein (Immunogen A); assay: ELISA, coated human PD-1ECD-hFc; antibody 10 nM
Description: as §1

[29] = biological target: T10, full length human PD-1 on cells; assay: flow cytometry, CHO-K1-hPD-1 cells; antibody 0.1 nM
Excerpt: as §2

[30] = biological target: T10, full length human PD-1 on cells; assay: flow cytometry, CHO-K1-hPD-1 cells; antibody 0.0316 nM
Excerpt: as §2

[31] = biological target: T11, human PD-1^ECD-hFc protein (Immunogen A); assay: ELISA, coated human PD-1ECD-hFc; antibody 0.1 nM
Description: as §1

Mean fluorescence intensity [16]	Mean fluorescence intensity [17]	Mean fluorescence intensity [18]	OD450 nm [19]	OD450 nm [20]	Mean fluorescence intensity [21]	Mean fluorescence intensity [22]	Mean fluorescence intensity [23]	OD450 nm [24]	OD450 nm [25]	OD450 nm [26]	OD450 nm [27]	OD450 nm [28]	Mean fluorescence intensity [29]	Mean fluorescence intensity [30]	OD450 nm [31]	Binder	further results
–	–	–	–	–	–	–	–	–	–	–	–	–	–	–	–	chimeric anti-PD-1 antibody 223G6B5 (antibody, V domains shown, Purified from hybridoma of Harbour H2L2 mice: human variable regions, rat constant regions) VH: QVQLQESGPGLVKPSETLSLTCAVSGHSIRGSYFWGWIRQPPGRGLEWIGSIYHSGSTYTNPSLKSRATISVDTSKNQFSLKLNSVTAADTAVYYCARDLDIATTRDYWGQGTLVTVSS VL: DIQLTQSPSFLSASVGDRVTIICRASQGINNYLAWYQQKPGKAPKLLIYAASTLQSGVPSRFSGSGSGTEFTLTISSLQPEDFATYYCQQLDSYPRTFGQGTKVEIKR	OD450 nm [1]: 1.28; OD450 nm [2]: 2.74; binding result (CTLA4 [3]): no binding; binding result (CD28 [4]): no binding; binding result (ICOS [5]): no binding; binding result (B7-1): no binding; OD450 nm [6]: 2.7; OD450 nm [7]: 0.342; OD450 nm [8]: 2.61; OD450 nm (CTLA4 [9]): 0.106; OD450 nm (CD28 [10]): 0.166; OD450 nm (ICOS [11]): 0.14
–	–	–	–	–	–	–	–	–	–	–	–	–	–	–	–	fully human anti-PD-1 antibody 223G6B5 (antibody, human IgG4, V domains shown) VH: QVQLQESGPGLVKPSETLSLTCAVSGHSIRGSYFWGWIRQPPGRGLEWIGSIYHSGSTYTNPSLKSRATISVDTSKNQFSLKLNSVTAADTAVYYCARDLDIATTRDYWGQGTLVTVSS VL: DIQLTQSPSFLSASVGDRVTIICRASQGINNYLAWYQQKPGKAPKLLIYAASTLQSGVPSRFSGSGSGTEFTLTISSLQPEDFATYYCQQLDSYPRTFGQGTKVEIKR	OD450 nm at 0 nM [12]: 0.31 OD450; OD450 nm at 0.001 nM [12]: 0.33 OD450; OD450 nm at 0.01 nM [12]: 0.83 OD450; OD450 nm at 0.1 nM [12]: 2.5 OD450; OD450 nm at 1 nM [12]: 2.88 OD450; OD450 nm at 100 nM [12]: 2.85 OD450; OD450 nm (CD28 [13]): 0.05 OD450; OD450 nm (ICOS [14]): 0.12 OD450; OD450 nm (B7.1): 0.25 OD450; OD450 nm (CTLA4 [15]): 0.13 OD450
826	22.9	3.4	0.4	2.83	203	5.2	825	0.39	0.45	0.9	2.86	2.86	3.2	4.1	2.54	chimeric anti-PD-1 antibody 226C3A7 (antibody, V domains shown, Purified from hybridoma of Harbour H2L2 mice: human variable regions, rat constant regions) VH: QVQLQQSGPGLVNPSQTLSLTCAISGDSVSSNSGAWNWIRQSPSRGLEWLGRTYYRSKWYNDYGISVQSRITINPDTSKNHFSLQLNSVTPEDTAVYYCARDPYYYGSGSYFDYWGQGTLVTVSS VL: EIVMTQSPATLSVSPGERVTLSCRASLSVNSNLAWYQQKPGQAPRLLIYDTSTRATGVPARFSGSGSGTEFTLTISSLQSEDFAVYYCQQYHYWPLTFGGGTKVEIK	–
986	21.4	3	0.43	2.77	160	5	1490	0.43	0.48	0.68	2.87	2.84	2.9	3	2.13	chimeric anti-PD-1 antibody 204C5E12 (antibody, V domains shown, Purified from hybridoma of Harbour H2L2 mice: human variable regions, rat constant regions) VH: QVQLVESGGGVVQPGRSLRLSCAASGFSFSYYGMHWVRQAPGKGLEWVAVIWYDGSNKYYADSVKGRFTISRDNSKNTLYLQMNSLRAEDTAVYYCASGITLVRGADYYYNYDMDVWGQGTTVTVSS VL: not shown	–
